The text below walks through data of US20200199207A1 (MABYLON, published 2020).

One experiment concerns the target T1, nAra h 3 (peanut).
T1 construct: Bought natural allergen; also called naturally extracted Ara h 3
Briefly: ELISA, antigen-coated plate. A general note: ELISA stands for enzyme-linked immunosorbent assay.

Another experiment has as its target T2, Peptide 11 (peanut).
T2 construct: also called linear Ara h 2 peptide 11
T2 peptide: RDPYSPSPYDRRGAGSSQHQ
Briefly: competition ELISA, peptide in solution vs coated Ara h 2. As for the experimental part:
(§1) A competition ELISA was used to evaluate binding of exemplary anti-peanut antibodies of the present invention to linear Ara h 2 epitopes. Serial dilutions of linear Ara h 2 epitopes (100 μM down to 0.19 nM; peptides with a length of 20 amino acids and an overlap of 12 amino acids between the peptides) were pre-incubated with exemplary anti-peanut antibodies ([…]) for 1 hour at room temperature. The pre-incubated antibody-epitope mixtures were subsequently incubated on plates coated with full length Ara h 2 (coating overnight at 4° C. with 0.05 μg/ml Ara h 2 in PBS, followed by wash out and blocking with 2% BSA in PBS). The plates were subsequently washed and binding of MAbs to Ara h 2 was detected HRP-conjugated goat anti human Fc-gamma-specific antibody (Jackson ImmunoResearch, West Grove, Pa., USA) followed by measurement of the HRP activity using a tetramethylbenzidine substrate solution (TMB, Sigma-Aldrich Chemie GmbH, Buchs, Switzerland). As may be seen from Table 5, exemplary anti-peanut allergen antibody 32B10 binds to different linear Ara h 2 epitopes than 12G10 and 37D5.

A further experiment deals with T3, Peptide 5 (peanut).
T3 construct: also called linear Ara h 2 peptide 5
T3 peptide: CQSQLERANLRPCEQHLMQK
The experiment is described as above. The protocol:
as §1

A further experiment addresses T4, Peptide 10 (peanut).
T4 construct: also called linear Ara h 2 peptide 10
T4 peptide: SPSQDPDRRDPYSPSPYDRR
The experiment is described as above. The protocol:
as §1

Another experiment has as its target T5, Peptide 13 (peanut).
T5 construct: also called linear Ara h 2 peptide 13
T5 peptide: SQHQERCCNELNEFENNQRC
Described as above. The protocol:
as §1

The target of another experiment is T6, Peptide 18 (peanut).
T6 construct: also called linear Ara h 2 peptide 18
T6 peptide: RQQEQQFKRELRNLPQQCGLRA
The experiment is described as above. As for the experimental part: as §1

For the next experiment, the target named is T7, Peptide 8 (peanut).
T7 construct: also called linear Ara h 2 peptide 8
T7 peptide: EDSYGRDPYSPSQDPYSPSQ
The experiment is described as above. The protocol: as §1

The target in another experiment is T8, Peptide 12 (peanut).
T8 construct: also called linear Ara h 2 peptide 12
T8 peptide: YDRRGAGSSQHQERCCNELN
Described as above. The protocol:
as §1

The target in the next experiment is T9, Peptide 9 (peanut).
T9 construct: also called linear Ara h 2 peptide 9
T9 peptide: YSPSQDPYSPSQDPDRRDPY
The description is as above. As for the experimental part: as §1

The target in a further experiment is T10, Peptide 7 (peanut).
T10 construct: also called linear Ara h 2 peptide 7
T10 peptide: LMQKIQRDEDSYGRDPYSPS
The description is as above. As for the experimental part:
as §1

The next experiment concerns the target T11, Peptide 20 (peanut).
T11 construct: also called linear Ara h 2 peptide 20
T11 peptide: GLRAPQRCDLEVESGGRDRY
Described as above. As for the experimental part: as §1

The next experiment concerns the target T12, Peptide 2 (peanut).
T12 construct: also called linear Ara h 2 peptide 2
T12 peptide: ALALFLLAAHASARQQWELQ
The experiment is described as above. As for the experimental part:
as §1

B1: h7G6 (antibody, V domains shown)
VH: QVQLVESGGGVVQPGRSLRLSCAASGIAFNDYTMHWVRRSPDKGLEWVAAISYGGTNKYYADSVKGRFTISRDSSKNTLFLQMDSLRVEDTAVYYCARDSGYRSLLHWGQGTLVTVSS
VL: EIVLTQSPLSLPVTPGEPASISCRSSQSLVHRNGYNYLDWYLQKPGQSPQLLIYMASKRASGVPDRFSGSGSGTEFTLKISRVEAEDVGIYYCMQALQTWTFGQGTKVEVN
notes: Recombinant human IgG; also called hMAb 7G6
For B1, in the experiment with nAra h 3, the EC50 – broadly, the concentration that produces a half-maximal response – came to 1.3 ng/mL. The binding result with Peptide 11, in the experiment with Peptide 5, with Peptide 10, with Peptide 13, in the experiment with Peptide 18 and with Peptide 8 was “no binding (tested: 100 µM)” in each case. The binding result with Peptide 12, in the experiment with Peptide 9, with Peptide 7, in the experiment with Peptide 20 and in the experiment with Peptide 2 was “no binding (tested: 100 µM)” each time.

B2: h2F8 (antibody, V domains shown)
VH: EVQLVESGGGLVKPGGSLRLSCAASGFIFSDYNMNWVRQAPGKGLEWVSSITRSSRTIYYADSVKGRFTISRDNAKNSLHLQMNSLRDADTAVYYCAREDFDVSTGPYYMDVWGNGTTVIVSS
VL: EIVLTQSPGTLSLSPGERATLSCRASQSVSNMFLVWYQQKPGQAPRLLMYGASTRATDIPDRFSGSGSGTDFTLTISRLEPEDFAVYYCQQNGNSPYTFGQGTKLEIK
notes: Recombinant human IgG; also called hMAb 2F8
For the molecule B2, a half-maximal response with nAra h 3 (EC50) required 2.8 ng/mL. Moreover, the binding result with Peptide 11, with Peptide 5, with Peptide 10, with Peptide 13, with Peptide 18 and with Peptide 8 was “no binding (tested: 100 µM)” in each case. The binding result in the experiment with Peptide 12, in the experiment with Peptide 9, in the experiment with Peptide 7, in the experiment with Peptide 20 and with Peptide 2 was “no binding (tested: 100 µM)” each time.
